Experimental findings from publication PMC6286077 are described below.

In this assay the target is phosphorylated PD-1 cytosolic domain, bound to large unilamellar vesicles (LUVs). In words: FRET or BRET. A general note: BRET reads energy transfer from a luciferase to a nearby fluorophore.

For the substance “Shp1, full length, SNAP-Tag fused, labeled with SNAP-Cell 505 (from UniProt P29350 1-595) (enzyme)”, the fold selectivity of PD-1 toward full-length Shp2 over Shp1 stood at 29 fold.
